Tests used:
[1] = target: KDR-alkaline phosphatase (AP) soluble fusion protein (human) (UniProt P35968); test: competitive blocking ELISA: antibody pre-incubated with KDR-AP, then binding of KDR-AP to immobilised VEGF165, A405
[2] = target: KDR-alkaline phosphatase (AP) soluble fusion protein (human) (UniProt P35968); test: BIAcore SPR, KDR immobilized
cell-surface KDR (human) = cell-surface KDR (human) (UniProt P35968); test: cell-based or functional assay
Sequence of cell-surface KDR (human) (P35968 20-1356): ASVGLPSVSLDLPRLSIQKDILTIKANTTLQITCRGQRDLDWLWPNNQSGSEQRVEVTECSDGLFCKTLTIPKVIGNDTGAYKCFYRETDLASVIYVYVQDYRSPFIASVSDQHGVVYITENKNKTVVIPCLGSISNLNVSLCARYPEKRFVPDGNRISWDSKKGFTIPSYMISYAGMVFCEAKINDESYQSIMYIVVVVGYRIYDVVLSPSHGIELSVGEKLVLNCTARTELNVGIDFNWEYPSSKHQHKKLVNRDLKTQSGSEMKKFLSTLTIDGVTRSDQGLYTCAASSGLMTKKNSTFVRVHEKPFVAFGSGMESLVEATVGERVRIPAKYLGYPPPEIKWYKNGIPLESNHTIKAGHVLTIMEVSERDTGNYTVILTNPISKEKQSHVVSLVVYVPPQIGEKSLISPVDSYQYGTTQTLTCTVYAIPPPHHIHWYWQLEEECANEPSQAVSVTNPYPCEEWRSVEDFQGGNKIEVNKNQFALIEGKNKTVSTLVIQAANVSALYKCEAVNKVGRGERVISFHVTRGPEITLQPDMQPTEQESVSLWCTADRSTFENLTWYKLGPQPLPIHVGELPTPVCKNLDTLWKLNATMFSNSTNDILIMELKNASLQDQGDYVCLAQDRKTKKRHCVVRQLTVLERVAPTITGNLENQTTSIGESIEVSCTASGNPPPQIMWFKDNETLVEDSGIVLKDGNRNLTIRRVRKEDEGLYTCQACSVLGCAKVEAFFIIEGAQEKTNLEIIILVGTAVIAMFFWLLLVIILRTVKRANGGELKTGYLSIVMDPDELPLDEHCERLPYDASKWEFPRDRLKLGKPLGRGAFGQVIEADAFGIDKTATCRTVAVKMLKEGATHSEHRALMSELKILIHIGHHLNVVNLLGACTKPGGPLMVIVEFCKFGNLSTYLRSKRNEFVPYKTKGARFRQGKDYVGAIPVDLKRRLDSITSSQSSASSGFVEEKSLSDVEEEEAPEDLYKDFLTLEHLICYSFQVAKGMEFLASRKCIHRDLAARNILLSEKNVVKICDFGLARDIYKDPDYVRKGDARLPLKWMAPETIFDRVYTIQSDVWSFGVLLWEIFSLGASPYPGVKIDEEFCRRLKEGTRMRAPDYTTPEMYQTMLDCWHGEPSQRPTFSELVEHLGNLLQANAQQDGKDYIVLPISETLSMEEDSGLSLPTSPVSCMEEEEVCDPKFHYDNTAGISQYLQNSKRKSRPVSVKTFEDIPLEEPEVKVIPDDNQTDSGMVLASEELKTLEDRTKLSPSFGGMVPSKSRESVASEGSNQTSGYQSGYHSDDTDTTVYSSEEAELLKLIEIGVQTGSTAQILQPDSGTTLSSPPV

Sequence of KDR-alkaline phosphatase (AP) soluble fusion protein (human) (P35968 20-764): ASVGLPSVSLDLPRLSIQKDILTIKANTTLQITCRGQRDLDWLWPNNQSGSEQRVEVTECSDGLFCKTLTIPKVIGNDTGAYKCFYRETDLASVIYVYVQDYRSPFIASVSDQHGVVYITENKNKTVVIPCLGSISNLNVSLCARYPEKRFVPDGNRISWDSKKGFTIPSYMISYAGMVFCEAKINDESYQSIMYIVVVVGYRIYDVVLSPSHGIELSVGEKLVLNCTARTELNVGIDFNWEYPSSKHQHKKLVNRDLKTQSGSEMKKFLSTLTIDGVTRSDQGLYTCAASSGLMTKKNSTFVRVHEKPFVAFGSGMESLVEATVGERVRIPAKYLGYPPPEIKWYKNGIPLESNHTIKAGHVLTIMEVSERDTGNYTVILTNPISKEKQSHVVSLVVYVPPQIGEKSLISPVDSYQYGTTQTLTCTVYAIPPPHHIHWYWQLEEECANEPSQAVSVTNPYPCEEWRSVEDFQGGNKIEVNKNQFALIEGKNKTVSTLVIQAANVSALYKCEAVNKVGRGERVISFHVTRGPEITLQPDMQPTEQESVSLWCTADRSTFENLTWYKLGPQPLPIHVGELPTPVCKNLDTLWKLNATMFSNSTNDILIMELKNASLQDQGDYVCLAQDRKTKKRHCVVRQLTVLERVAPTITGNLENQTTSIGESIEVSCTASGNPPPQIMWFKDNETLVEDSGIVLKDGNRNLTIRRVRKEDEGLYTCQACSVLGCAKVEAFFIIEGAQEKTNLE

## IMC-1C11 (antibody)
[1]
  IC50 (read off the curve): 1 nM
[2]
  Kd: 0.27 nM
  fold change of Kd against its Fab counterpart: 5 fold
  koff: 3.7e-05 s⁻¹
  kon: 134000 M⁻¹ s⁻¹
cell-surface KDR (human)
  ED50 of inhibition of VEGF-stimulated [3H]-TdR incorporation in HUVEC: 1.5 nM

From US20050234225A1
